Data as given in the nanobody polyreactivity screen of Harvey et al. (2022).

Experiment: yeast display, Sf9 membrane polyspecificity reagent, FACS + sequencing; frameworks hold sequencing errors
Outline: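 In a synthetic yeast display library (Saccharomyces cerevisiae BJ5465), nanobody expression was induced with galactose for 36–48 hours. FACS gates were set low and high (top ~1%) using anti-HA fluorescence for expression and streptavidin fluorescence for binding of the Sf9 membrane reagent. Each polyreactivity label is drawn from the gate of origin.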

For “QVHLVESGGGLDQARGSHRLSCAASGYTIPTYAMGWYRHAPGKERELVAAINWSGSRTYYADSVKGRFTISRDNAKNTVYLQMNSVKPEDTAFYYCAAYAYRVGPIRRHDYWGQGTQVTVSS”, the “polyreactivity (PSR sort gate)” value was “high polyreactivity”.
For “QVHLVESGGGLVQAGGSRRLSCAASGITYRFYTMGWYRQAPGKEREFVAAITYGVGRTDYADSVKGRFTISRDNAKNTVYLQMNSLNPEDTAVYYCAATWGYGYDYWGQGTQVTVSS”, the “polyreactivity (PSR sort gate)” value was “high polyreactivity”.
With “QVQLEESGGGLVQAGGSLRFSFAASGSIFRYYAMGWYRQAPGKERELVANISRGCSTYYADSVKGRFTISRDNAKKTVYLQMNSLKPDDTAVYYCAADISERYDYWGQGTQVTVSS” the “polyreactivity (PSR sort gate)” value was “high polyreactivity”.
With “QVQLVESGGVLVQAGGSLRLSCAASGSIFTYYAMGWYRQAPGKEREFVAAISRSGGSTYYADSVKGRFTISRDNANNTVYLQMNSLKPEDTAVYYCNAYSYSDAGDDGDYWGQGTQVTVSS” the “polyreactivity (PSR sort gate)” value was “low polyreactivity”.
With “QVQLVESGGGLVQAGGSLRLSCAASGSTFGGNAMGWYRPAPGKERELVAGITTGGTTNYADSVKGRFTISRDNAKNTVYLQMISLIPEDTAVYYCAAGPSSSLTLYDYWGQGTQVTVSS” the “polyreactivity (PSR sort gate)” value was “low polyreactivity”.
With “QVQLVESGGGLVQAGGILRLSCAASGSTSYIYAMGWYRQAPGKERELVAAITWRTGRTYYADSVKGRFTISRDNAKNTVYLQMNSLKPEDTAVYYCAATYYLSFAVKMYYWGQGTQVTVSS” the “polyreactivity (PSR sort gate)” value was “high polyreactivity”.
For “QVQLVESGGGLVQAGGSLRLSCAASGSTFSYYAMGWYRQAPGKERELVAAIRSDGGSTYYADSVKGRFTISRDNAKNTVYLQMNSLKPEDTAVYYCNAPYRRSAKFRRYGYDYWGQGTQVTVSS”, the “polyreactivity (PSR sort gate)” value was “high polyreactivity”.
In the case of “QDQLVESGGGLVQAGGSLRLSCAASGRIFYPNAMGWYRQAPGKERELVASISRGGPTSYADSVKGRFTISRDNAKNTVYLQMNSLKPEDTAVYYCAADVAWYRYRSYYWGQGTQVTVSS”, the “polyreactivity (PSR sort gate)” value is reported as “high polyreactivity”.
With “QVQLVESGGGLVQAGGSLRLSCAASGRIFVQNAMGWYRQAPGKERELVAAISISGARTYYADSVKGRFTISRDNAKNTVYLQMNSLKPEDTAVYYCNASYRDEDDYWGQGTQVTVSS” the “polyreactivity (PSR sort gate)” value was “high polyreactivity”.
With “QVQLVESGGGLVQAGGSLRLSCAASGSIIRAYAMGWYRQAPGKERELVAAITIGDSTYYADSVKGRFTISRDNAKNTVYLQMNSLKPEDTAVYYCAAKSQHLYTRRFNYWGQGTQVTVSS” the “polyreactivity (PSR sort gate)” value was “low polyreactivity”.
In the case of “QVQHVESGGGLVQAGGSLRLSCAASGRIFYAYAMGWYRQAPGKERELVASISGGGSTDYADSVKGRFTISRDNAKNTVYLQMNSLKPEDTGVYYCAAQYYLYRSRFDYWGQGTQVTVSS”, the “polyreactivity (PSR sort gate)” value is reported as “high polyreactivity”.
For “QVQLVESGGGLVQAGGSLRLSCAASGSTFVRYAMGWYRQAPGKEREFVASITCRGGSTYYADSVKGRFTITRDNAKNTVYLQMNSLKPEDTAVYYCAARGREWYYWGQGTQVTVSS”, the “polyreactivity (PSR sort gate)” value was “high polyreactivity”.
For “QVQLVESGGGLVQAGGSLRLSCAASGRTFGPYAMGWYRQAPGKERELVAAIRYIDDSTFYADSVKGRFTISRDNAKNTVYLQMNSLKPEDTAVYYCAAQRRVVGRHGLSLIRYDYWGQGTQVTVSS”, the “polyreactivity (PSR sort gate)” value was “low polyreactivity”.
In the case of “QVQLEESRGGLVQAGGSLRLSCAASGSTFVINDMGWYRQAPGKETELVAAISKSGGRTYYADSVKGRFTISRDNATNTVYLQMNSLKPEDTAVYYCAAVSQRTRYGYWGQGTQVTVSS”, the “polyreactivity (PSR sort gate)” value is reported as “high polyreactivity”.
With “QVQLVESGGGLVQAGGSLRLSCAASGSTFIFYTMGWYRQAPGKERELVAAITSNGGSTYYADSVKGRFTISRDNAKNTVYFQMNSLKPEDTAVYYCARVDRWRRYRYIFSGYDYWGQGTQVTVSS” the “polyreactivity (PSR sort gate)” value was “high polyreactivity”.
In the case of “QVQLVESGGGLVQAGGSLLLSCAASGYTLEYNAMGWNRQAPGKEREFVARIRWSGSSTYYADSVKGRCTISRDNAKNTVYLQMNSLKPEDTAVYYCNADDGYYVGLSSAIYDYWGQGTQVTVSS”, the “polyreactivity (PSR sort gate)” value is reported as “high polyreactivity”.
With “QVQLVESGGGLVQAGGSLRLSCAASGRIFGGYAMGWSRQAPGKERELVAAISNGGSTYYADSVKGRFTISRDNAKNTVYLQMNSLKPEDTAVYYCAARWNWTGYRYDHWGQGTQVTVSS” the “polyreactivity (PSR sort gate)” value was “low polyreactivity”.
In the case of “QVQLVESGGGLVQAGGSLRLSCAASGITFPFYAMGWYRQAPGKERELVAAISRRGGRTYYADSVKGRFTISRDNAKNTVYLQMNSLKPEDTAVYYCAAANGSADGDYWGQGTQVTVSS”, the “polyreactivity (PSR sort gate)” value is reported as “high polyreactivity”.
For “QVHLVESGGGLVLAGGSLRLSCAASVRIYTRNVMGWYRQAPGKERELVAAISTSGGSTFYADSVKGRFTISRDNAKNTVYLQMNSLKPEDTAVYYCAKRRYGKLEYWGQGTQVTVSS”, the “polyreactivity (PSR sort gate)” value was “high polyreactivity”.
In the case of “QVQLVESGGGIVQAGGSLRLSCAASGRIFKWNAMGWYRQAPGKERELVAAISTSRGNTYYADSVKGRFTSSRDYAKNTVYLLMNSLKPEDTAGYYCAATYPISLRQVGYWGQATQVTVSS”, the “polyreactivity (PSR sort gate)” value is reported as “high polyreactivity”.
With “QVQLVESAGGLVQAGGSLRLSCAASGGIFVFYAMGWYRQAPGKERELVAAITYRGGSTSYADSVKGRFTISRDHAKNTVYLQLNSVKPEDTAVYYCAAAFYAKGQRYGYWGHGTQVTVSS” the “polyreactivity (PSR sort gate)” value was “high polyreactivity”.
For “QVQLVESGGGLVQAGGSLRLSCAASGSIFSRNAMGWYRQARGKERELVAAISWRGGSTYYADSVKGRFTISRDNAKNTGYLQMNSLKPEDTAVYYCAAVYQFIKWGDRYEYWGQGTQVTVSS”, the “polyreactivity (PSR sort gate)” value was “high polyreactivity”.
In the case of “HVQLVESGGGLVQAGGSLRLICGASGFTFPNYAMGGYRHAPGKERELVAAITSGGGRTNYADSVKGRFTISRDNAKITVYLQMNSLKPADTAVYYCNAEKTYLGSRYRPYNYWGQGTQVTVSS”, the “polyreactivity (PSR sort gate)” value is reported as “low polyreactivity”.
For “QVQLVESGGGLVQAGGSLRLSCAASGGIFRYYAMGWYRQAPGKERELVAAITSSGTSTYYADSVKGRFTISRDNAKNTVYLQMNSLKPEDTAVYYCAATRTKRKFDYWGQGTQVTVSS”, the “polyreactivity (PSR sort gate)” value was “high polyreactivity”.
In the case of “QVQLVESGGGLVQAGGSLRLRCAASGSTFLKNAKGWYRQAPGKERELVAAISYSTTRSYYADSVKGRFTISRDNAKNTVYLQMNSLKPEDTAVYYCAADGYWWTYTRYDYWGQGTQVTVSS”, the “polyreactivity (PSR sort gate)” value is reported as “low polyreactivity”.
In the case of “QVQLVESGGGLVQAGGSLRLSCAASGSTFYLYAKGWYRQAPGKEREMVAAITGSGSRTYYADSVKGRFTISRDNAKNTVYLQMHSLNPEDTAVYYCAAKYGWQGGRGRDYWGQGTQVTVSS”, the “polyreactivity (PSR sort gate)” value is reported as “high polyreactivity”.
In the case of “QVQLVESGGGLVQAGGSLRFSCAASGSIFRVNAMGWYRQAPGKERELVAAITDGGITNYADSVKGRFTISRDNAKNTVYLQMNSLKPEDTAVYYCAADTDRDFHYVVPTYDYWGQGTQVTVSS”, the “polyreactivity (PSR sort gate)” value is reported as “low polyreactivity”.
In the case of “QVQLVESGGGLVQAGGSLRLSCAASGSIFYFYAMGGYRQAPGKERELVAAIRSSDGITYYADSVKGRFTISRDNAKNTVYLQMNSLKPEDTAVYYCAALVRDFYNWDTLYYWGQGTQVTVSS”, the “polyreactivity (PSR sort gate)” value is reported as “low polyreactivity”.
For “QVQLVESGGGLVQAGGSLRLSCAASGRIFYRYAMGWYRQAPGKERELVAGITRGGSTYYADSVKGRFTISRDNAKNTVYFQMNSLKPEDTAVYYCNVRWSPAGTGLLDYWGQGTQVTVSS”, the “polyreactivity (PSR sort gate)” value was “high polyreactivity”.
In the case of “QVQLVESGGGLVQAGGSLRLSCAASGRIFKSYAMGWYRQAPGKERELVAAISSGDDTYYADSVKGRFTISRDNAKNTVYLQMNSLKPEDTAVYYCAADYWGWLYLYGDYLVDYWGQGTQVTVSS”, the “polyreactivity (PSR sort gate)” value is reported as “low polyreactivity”.
For “QVQLVESGGGLVQAGVSLRLSCAASGRIFGPYAMGWYRQAPGKERELVAAITWRGDRTYYADSVKGRFTISRDNAKNTVYLQMNSLKPEDTAVYYCAARGGRSEYDYWGLGTQVTVSS”, the “polyreactivity (PSR sort gate)” value was “low polyreactivity”.
In the case of “QVQLVESGGGLVQAGGSLRLSCAASGSTFDNYAMGWYRQAPGKERELVAAINSRGGRTYYADSVKGRFTISRDNAKNTVYLQMNSLKPEDTAVYYCAAVGATHRFDYWGQGTQVTVSS”, the “polyreactivity (PSR sort gate)” value is reported as “high polyreactivity”.
In the case of “QVHLVESGGGLVQAGGSLRLSCAASGYTIRRNAMGWYRQAPGKERELVAAITSGGSTDYADSVKGRFTISRDNAKNTVYLQMISLKPEDTAVYYCAADGIYRGAWSTVYESPGYDYWGQGTQVTVSS”, the “polyreactivity (PSR sort gate)” value is reported as “low polyreactivity”.
For “QVQLVESGGGLVQAGGSLRLSCAASGRTLADNAMGWYRQAPGKERELVAAITFSGDTTYYADSVKGRFTISRDNAKNTVYLQMNSLKPEDTAVYYCAAESSDPRAYDYWGQGTQVTVSS”, the “polyreactivity (PSR sort gate)” value was “low polyreactivity”.
In the case of “QVQLVESGGGLVQAGGSLRLSCAASGLTLTYYAMGWYRQAPGKERELVAAISSSGGSTYYADSVKGRFTISRDNAKNTVYLQMNSLKPEDAAVYYCAATRVSWTGRDDYWGQGTQVTVSS”, the “polyreactivity (PSR sort gate)” value is reported as “high polyreactivity”.
In the case of “QVQLVESGGGLVQAGGSLRLSCAASGSIFDPYAMGWYRQAPGKERELVAAISFSGGSTSYADSVKGRFTISRDNAKNTVYLQMNSLTPEATAVYYCAKRARFYSETDLKPYGFDYWGHGTQVTVSS”, the “polyreactivity (PSR sort gate)” value is reported as “low polyreactivity”.
With “QVQLVESGGGLVQAGGSLRLSCAASGSYLRYYAMGWYRQAPGKERELVAAISRSGTNTYYADSVKGRFTISRDNAKNTVYLQMNSLKPEDTAVYYCAARSWKRRVGRDYWGQGTQVTVSS” the “polyreactivity (PSR sort gate)” value was “high polyreactivity”.
In the case of “QVQLVESGGGLVQAGGRLRLSCAASGRTFHYYALGWYRQATGKERELVAVIRYSGGRTYYADTVKGRFTISRDNAKNTVYLQMNSLKPEDTAVYYCNKGRWRTDPPVYLIAFDYWGQGTQVTVSS”, the “polyreactivity (PSR sort gate)” value is reported as “low polyreactivity”.
For “QVQLVESGGGLVQAGGSLRLSCAASGFTFIRNAMGWYRQAPGKERELVAAISKRGGSTNYADSVKGRFTISRDNAKTTVYLLMNSLKPEDTAVYYCAADVDTRSSSGYWGQGTQVTVSS”, the “polyreactivity (PSR sort gate)” value was “low polyreactivity”.
For “QVQLVESGGGLVQAGGSLRLSCAASGRTIRWNAMGWYRQAPGKERELVAAIDSVDNTYYADSVNGRFTISRDNAKNTVYFQMNSLKPEDTAVYYCARDTYWQVQMDYWGQGTQVTVSS”, the “polyreactivity (PSR sort gate)” value was “low polyreactivity”.
With “QVQLVESGGGLVQAGGSLRLSCAASGRTFSWYAMGWYRQAPGKEREFVATISASGGSTYYADSVKGRFTISRDNAKNTVYLQMNSLKPEDTAVYYCAADRSIRFFSPANYDYWGQGTQVTVSS” the “polyreactivity (PSR sort gate)” value was “high polyreactivity”.
In the case of “QVQLVESGGGLVQAGGSLRLSCAASGRIFGLYAMGWYRQAPGKERELVAAISVISTGPYYADSVKGRFTISRDNAMNTVYFQMNSLKPEDTAVYYCNADSVQYTPPESDYWGQGTQVTVSS”, the “polyreactivity (PSR sort gate)” value is reported as “low polyreactivity”.
For “QVQLVESGGGLVQAGGSLRLSCAASGSIFTNYAMGWDRQAPGKERELVAAIRSSGGSTYYADSVKGRFTISRDNAKNTVYFQLNSLKPEDTAVYYCAARKSYKYPVNSAVGYWGQGTQVTVSS”, the “polyreactivity (PSR sort gate)” value was “high polyreactivity”.
